One may read the Ki as a measure of affinity in units of concentration, obtained from inhibition or displacement.

The values below come from US20040235744A1.

Like-named read-outs stand apart in the source and are kept apart here.

The target of data set [1] is nNOS-II (novel constitutive neuronal nitric oxide synthase purified from rat cerebellum) (rat). Nature of the data set: enzyme inhibition kinetics on purified nNOS-II, competitive against BK as substrate, oxyhemoglobin assay, EZ-FIT.
Data set [2] has the same target. Described as above. This is another data set of the same source.
Data set [3] deals with T1, [Lys^1]-BK.
T1 sequence: KPPGFSPFR

The subject of data set [4] is T2, Met-Lys-BK.
T2 sequence: MKRPPGFSPFR

The subject of data set [5] is T3, Cit^1-BK.
T3 sequence: XPPGFSPFR

Data set [6] concerns T4, Ile-Ser-BK.
T4 sequence: ISRPPGFSPFR

Data set [7] concerns T5, BK fragment 2-7.
T5 sequence: PPGFSP

Data set [8] has as its system T6, BK fragment 1-5.
T6 sequence: RPPGF

The subject of data set [9] is T7, Lys-BK.
T7 sequence: KRPPGFSPFR

Data set [10] has as its system T8, Des-Arg^1-BK.
T8 sequence: PPGFSPFA

In data set [11] the test system is Poly-arginine (Mr 5,000).
Data set [12] relates to bradykinin (Arg-Pro-Pro-Gly-Phe-Ser-Pro-Phe-Arg).
Data set [13] relates to T9, BK fragment 1-7.
T9 sequence: RPPGFSP

With “[N-adamantaneacetyl-D-Arg^0, Hyp^3, Thi^5,8, D-Phe^7]-BK (peptide)”, the inhibition constant Ki in data set [1] was 2500 µM; in [2], 2.5 µM.
Turning to “nNOS-II (novel constitutive neuronal nitric oxide synthase purified from rat cerebellum)”, the Relative activity (%) as substrate, L-arginine = 100% in [3] worked out at 113%; in data set [4], 0%; in data set [6] it was 110%; in [7] it was 0%; in data set [8], 61%; in [9], 116%. Further, the Relative activity (%) as substrate, L-arginine = 100% in data set [10] was determined as 94%; in data set [11] it was 30%; in data set [12] it was 125%; in data set [13], 80%. For the same substance, the “apparent KM (NOS activity, oxyhemoglobin assay)” value is “Apparent KM values for BK and Cit^1-BK were 8.5 and 6.2 µM, respectively” in [5]; “Apparent KM values for BK and Cit^1-BK were 8.5 and 6.2 µM, respectively” in data set [12]. Further, the “apparent Vmax (NOS activity, oxyhemoglobin assay)” value was “apparent Vmax values for BK and Cit^1-BK were 1.2 and 1.6 µmol/min/mg protein, respectively” in data set [5]; “apparent Vmax values for BK and Cit^1-BK were 1.2 and 1.6 µmol/min/mg protein, respectively” in data set [12].
